This passage reports Ka results from publication PMC2132493.

This data set has as its target mXRN1p (Mus musculus (mouse; testis BALB/c and …, UniProt P97789 1-1719). Nature of the data set: EMSA.

Sequence of mXRN1p (Mus musculus (P97789 whole entry): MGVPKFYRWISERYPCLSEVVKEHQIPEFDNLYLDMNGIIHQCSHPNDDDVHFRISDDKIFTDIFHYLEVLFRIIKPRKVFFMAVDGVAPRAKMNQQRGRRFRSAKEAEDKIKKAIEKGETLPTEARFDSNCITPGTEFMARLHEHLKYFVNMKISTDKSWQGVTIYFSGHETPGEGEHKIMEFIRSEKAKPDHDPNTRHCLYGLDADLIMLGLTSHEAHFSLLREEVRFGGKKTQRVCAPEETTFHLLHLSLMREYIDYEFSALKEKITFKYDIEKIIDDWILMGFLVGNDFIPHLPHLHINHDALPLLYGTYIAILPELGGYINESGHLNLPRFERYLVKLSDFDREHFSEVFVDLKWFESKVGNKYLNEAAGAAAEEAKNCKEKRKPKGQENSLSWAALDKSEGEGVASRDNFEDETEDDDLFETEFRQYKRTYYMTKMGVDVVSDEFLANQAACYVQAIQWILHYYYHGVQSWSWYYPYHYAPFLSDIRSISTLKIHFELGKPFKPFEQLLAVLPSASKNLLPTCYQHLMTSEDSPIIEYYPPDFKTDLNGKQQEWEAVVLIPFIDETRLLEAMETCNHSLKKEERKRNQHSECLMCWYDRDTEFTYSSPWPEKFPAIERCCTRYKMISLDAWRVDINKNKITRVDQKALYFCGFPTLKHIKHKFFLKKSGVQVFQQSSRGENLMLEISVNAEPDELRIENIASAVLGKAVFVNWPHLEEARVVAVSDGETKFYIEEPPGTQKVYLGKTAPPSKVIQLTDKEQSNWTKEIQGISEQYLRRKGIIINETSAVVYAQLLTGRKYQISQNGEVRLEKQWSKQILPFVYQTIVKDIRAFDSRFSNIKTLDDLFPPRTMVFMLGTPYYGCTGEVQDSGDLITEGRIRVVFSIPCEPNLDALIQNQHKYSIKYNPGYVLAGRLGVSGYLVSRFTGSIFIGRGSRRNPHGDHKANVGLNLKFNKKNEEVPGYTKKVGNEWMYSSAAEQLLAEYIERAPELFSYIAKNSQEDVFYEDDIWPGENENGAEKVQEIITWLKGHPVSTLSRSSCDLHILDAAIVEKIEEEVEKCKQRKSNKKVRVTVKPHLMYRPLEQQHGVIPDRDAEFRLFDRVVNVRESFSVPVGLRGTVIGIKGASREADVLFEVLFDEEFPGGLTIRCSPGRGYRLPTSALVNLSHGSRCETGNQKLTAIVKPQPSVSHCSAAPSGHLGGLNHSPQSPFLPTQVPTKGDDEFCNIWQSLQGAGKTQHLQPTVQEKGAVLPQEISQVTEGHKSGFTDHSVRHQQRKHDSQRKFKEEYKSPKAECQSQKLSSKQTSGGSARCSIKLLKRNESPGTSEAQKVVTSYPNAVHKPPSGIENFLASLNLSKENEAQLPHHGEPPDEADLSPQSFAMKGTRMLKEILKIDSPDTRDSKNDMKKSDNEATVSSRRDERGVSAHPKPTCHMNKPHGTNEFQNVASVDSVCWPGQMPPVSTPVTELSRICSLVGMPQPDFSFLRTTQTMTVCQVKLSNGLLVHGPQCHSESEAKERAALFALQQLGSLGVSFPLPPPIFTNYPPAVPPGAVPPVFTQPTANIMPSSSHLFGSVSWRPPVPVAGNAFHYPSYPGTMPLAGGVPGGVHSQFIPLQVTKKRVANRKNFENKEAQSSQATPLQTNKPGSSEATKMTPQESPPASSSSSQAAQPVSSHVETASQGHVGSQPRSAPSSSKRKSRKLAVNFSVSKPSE

In turn, TATGGGGGAGCTGGGGAAGGTGGGATTT (structured_DNA) [GL[G4]] gave a Ka of 1.26e+10 M⁻¹.
Take UAUGGGGGAGCUGGGGAAGGUGGGAUUU (structured_RNA) [rGL[G4]]: the Ka was found to be 2.95e+10 M⁻¹.
